Source: US20230190868A1 (NATIONAL UNIVERSITY OF SINGAPORE, published 2023)

Biological target: T1, cell-surface GRP78 (csGRP78) on mouse alveolar macrophages (primary AMs; MH-S cells) (mouse, UniProt P20029 20-655)
T1 construct: whole, on cells; Endogenous protein on mouse cells; the species follows from the cells used; also called Glucose-Regulated Protein 78 kDa
Test: confocal immunofluorescence on non-permeabilized primary alveolar macrophages, 1 µM rISM1
Protocol: Cell-surface GRP78 (csGRP78) has been previously detected on mouse peritoneal macrophages (Misra, Gonzalez-Gronow et al., 2005) and human monocytes (Lu, Lai et al., 2010). Primary AMs were treated with recombinant ISM1 (rISM1) to determine if csGRP78 is present and serves as an ISM1 receptor on AMs. It was observed that rISM1 binds to csGRP78 on non-permeabilized AMs (FIG. 6C) and co-localized with GRP78 intracellularly (FIG. 6D), leading to AM apoptosis (FIG. 2K and FIG. 6E). Similarly, rISM1 induced apoptosis in immortalized mouse AM cells (MH-S) upon thapsigargin (TG) pretreatment (FIG. 6F), an ER stress inducer known to promote GRP78 translocation to the cell surface (Li, Ni et al., 2008). […] Increased AMs in Ism1^{Δ/Δ} lungs contributed towards protease-antiprotease imbalance, thus leading to spontaneous COPD in Ism1^{Δ/Δ} mice under ambient air.
(FIG. 6C). […] In FIG. 6C, representative confocal images of primary AMs for rISM1 (red) and GRP78 (green) co-localization after 1 µM rISM1 treatment for 1 hour are shown (Nuclei were stained with DAPI (blue)). Further, mouse AM cell line MH-S cells undergo ISM1 induced apoptosis when the cells were pre-treated with thapsigargin (TG), which induce ER stress and upregulate csGRP78. Denatured ISM1 (boiled) lost this pro-apoptotic function, indicating this pro-apoptotic activity is a function of the ISM1 protein. […]

T1 sequence (P20029 20-655): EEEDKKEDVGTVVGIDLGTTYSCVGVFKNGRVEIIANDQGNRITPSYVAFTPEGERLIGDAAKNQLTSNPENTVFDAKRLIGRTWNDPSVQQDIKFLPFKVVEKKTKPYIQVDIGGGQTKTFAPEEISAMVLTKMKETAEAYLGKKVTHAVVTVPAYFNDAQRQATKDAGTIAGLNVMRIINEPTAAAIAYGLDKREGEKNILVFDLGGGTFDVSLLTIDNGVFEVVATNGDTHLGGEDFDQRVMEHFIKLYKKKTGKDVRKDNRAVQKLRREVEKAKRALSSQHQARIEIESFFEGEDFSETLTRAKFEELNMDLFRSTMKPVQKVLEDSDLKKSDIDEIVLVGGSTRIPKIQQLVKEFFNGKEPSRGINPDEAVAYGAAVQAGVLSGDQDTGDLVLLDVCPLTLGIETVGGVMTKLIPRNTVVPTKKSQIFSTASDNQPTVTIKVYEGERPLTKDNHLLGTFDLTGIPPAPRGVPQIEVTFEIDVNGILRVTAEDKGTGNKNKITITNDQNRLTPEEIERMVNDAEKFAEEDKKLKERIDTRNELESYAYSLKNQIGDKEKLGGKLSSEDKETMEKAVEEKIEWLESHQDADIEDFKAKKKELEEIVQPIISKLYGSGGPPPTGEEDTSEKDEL

binding result: binds
B1: recombinant ISM1 (rISM1), mouse mature form without signal peptide, 6xHis-tagged, expressed in E. coli (vector pET-M) (ligand)
chain: SDRQDAAAGNVSGSQLQNNLNLESDSTSETSFPLSKEAPEEHQVVHQPFPRQRFPPETGHPSLQRDGPRSFLLDLPNFPDLSKADINGQNPNIQVTIEVVDGPDSEAEKDQHPENKPSWSLPAPDWRAWWQRSLSLARTNSGDQDDKYDSTSDDSNFLSVPRGWDRPAPGHRTFETKEQPEYDSTDGEGDWSLWSVCSVTCGNGNQKRTRSCGYACIATESRTCDRPNCPGIEDTFRTAATEVSLLAGSEEFNATKLFEVDMDSCERWMSCKSEFLKKYMHKVINDLPSCPCSYPTEVAYSTADIFDRIKRKDFRWKDASGPKEKLEIYKPTARYCIRSMLSLESTTLAAQHCCYGDNMQLITRGKGAGTPNLISTEFSAELHYKVDVLPWIICKGDWSRYNEARPPNNGQKCTESPSDEDYIKQFQEAREYLEHHHHHH
notes: also called mouse rISM1
